In patent US20220144895A1, “DE NOVO DESIGN OF TUNABLE PH-DRIVEN CONFORMATIONAL SWITCHES” (University of Washington, priority 2019, published 2022):
“Also recorded” adds a separate entry of the source.

Key:
[1] = test system: U2-OS cells; experiment: Colocalization of +36GFP fusions with lysosomal membrane (confocal microscopy); format: cell-based; details: 5 μM, 1 hr
Method: U-2 OS (ATCC) cells were cultured in DMEM supplemented with 10% (v/v) inactivated FBS (Corning), 2 mM glutamine, penicillin (100 IU/mL), and streptomycin (100 μg/mL) at 37° C. and 5% CO2. The glass-bottom coverslip chambers were pre-coated with 500 μg/mL of Matrigel (Corning). Transfection of LAMP1-HaloTagTM was performed using Lonza Nucleofector system according to the manufacturer's specifications. After overnight of recovery and expression, the cells expressing LAMP1-HaloTagTM were labeled with 100 nM JF646-HTL for 30 minutes and washed three times with pre-warmed DMEM medium. The final concentration of 5 μM+36GFP fusion proteins was incubated with the LAMP1-HaloTagTM expressing U-2 OS cells on a pre-coated coverslip for 1 hr. Cells were fixed with 4% paraformaldehyde for 20 min at room temperature (RT) and quenched/rinsed with PBS supplemented with 30 mM glycine. Then, the coverslips were mounted on FluoroSaveTM (Millipore). For pH measurement of the lysosome, LysoSensorTM Yellow/Blue DND-160 was incubated at 1 mg/mL overnight and washed twice prior to imaging (54). The final concentration of 5 μM protein was incubated with the LAMP1-HaloTag expressing U2-OS cells that were loaded with 1 mg/mL LysoSensorTM Yellow/Blue DND-160 for 1 hr. In separate chambers, LysoSensorTM Yellow/Blue DND-160 loaded cells were incubated with bafilomycin A1 (1 μM) and chloroquine (50 μM) for 1 hr as a control. For fixed cell confocal microscopy, a customized Nikon TiE inverted scope outfitted with a Yokogawa spinning-disk scan head (#CSU-X1) along with an Andor iXonTM EM-CCD camera (DU-897) with […] exposure time was used to collect 3D images using an SR Apo TIRF 100×1.49 oil-immersion objective. […] coefficients were calculated in 3D with JF646 signal (LAMP-HaloTag) and +36GFP signal (corresponding proteins) using Imaris software with thresholding. Zeiss 880 equipped with AiryScanTM was also used to obtain high resolution images using a Plan-Apochromatic 63×/1.4 oil DIC objective.

[2] = Native mass spectrometry of pH-induced changes in oligomeric state; format: physicochemical; details: native MS
Outline: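 Protein in 200 mM ammonium acetate/50 mM triethylammonium acetate, acid-adjusted to each target pH, was held 30 min on ice and sprayed by nESI at 5 μM monomer or 1.67 μM trimer. Oligomer fractions came from integrated charge-state series, then fitted by nonlinear least squares.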

[3] = Cryo-electron microscopy and tomography of proteins with DOPC liposomes; details: gold-nanoparticle conjugates, pH 5 and pH 8
Method: The conjugation reactions were performed immediately prior to use for electron microscopy imaging. […] The grids were prepared using a Vitrobot Mark IV (FEI) at 4 C and 100% humidity before being plunge-frozen in ethane cooled with liquid nitrogen.
Electron micrographs were collected using a Tecnai G2 Spirit™ Transmission Electron Microscope (FEI) operated at 120 kV and equipped with a 4k×4k Gatan Ultrascan CCD camera at a nominal magnification of 26,000× or a Tecnai TF-20 Transmission Electron Microscope (FEI) operated at 200 kV equipped with a K2 Summit Direct Electron Detector (Gatan).
Projection micrographs collected on the TF-20 were captured with the detector operating in counting mode. Specimens were imaged at 14,500 magnification, giving a pixel size of 0.254 nm, with a dose of ˜18e−/Å^2 across 75 200 ms movie frames. Data were collected in a semi-automated fashion using Leginon™ (49) and micrograph movie frames were aligned using MotionCor2™ (50). Leginon™ was used to collect tomography tilt series from −48 to +48 degrees bidirectionally in 3 degree increments with a total accumulated dose of ˜100 e−/Å^2. Reconstructions were processed using etomo in the IMOD™ software suite (31) with CTF parameters estimated from CTFFIND4™ (52). Reconstructed tomograms were visualized and measurements were made using ImageJ™ (53).

[4] = Fluorescence dequenching liposome leakage (liposome disruption) assay; format: biochemical; details: pH 5, 2.5 μM protein
Method: Liposomes composed of DOPC (1,2-dioleoyl-sn-glycero-3-phosphocholine), DOPC with 25% cholesterol (molar ratio to DOPC), 3:1 DOPC:POPS (1-palmitoyl-2-oleoyl-sn-glycero-3-phospho-L-serine), and 3:1 DOPC:POPS with 25% cholesterol were prepared identically to a final concentration of 5 mM total lipid as previously described (32); lipids from Avanti Polar Lipids. Lipids solubilized in chloroform were dried under nitrogen gas and stored under vacuum for a minimum of 2 hours to remove residual solvent. The dried lipid film was the resuspended in Tris buffer (10 mM Tris, 150 mM NaCl, and 0.02% NaN3 pH 8.0) containing 25 mM Sulforhodamine B (SRB) fluorophore (Sigma) and subjected to 10 sequential freeze thaw cycles in liquid nitrogen. Liposomes were extruded 29 times through 100 nm pore size polycarbonate filters (Avanti Polar Lipids) and purified from free fluorophore using a PD-10 gel filtration column (GE Healthcare) into storage buffer (10 mM Tris, 150 mM NaCl, and 0.02% NaN3 pH 8.0). Liposome size and homogeneity was analyzed by dynamic light scattering (DLS) using a Dynapro Nanostar™ DLS (Wyatt Technologies). On average liposome diameter ranged from 120-130 nm with low polydispersity. Liposomes were stored at 4° C. and used within 5 days of preparation.
Liposome disruption and content leakage was analyzed by fluorescence spectroscopy as previously described (32). […] The solution was rapidly acidified to the target pH by addition of a fixed volume of acidification buffer and incubated for 20 minutes. […] SRB fluorescence is independent of pH within the ranges used here. Finally. Triton X-100 (Sigma) was added to a final concentration of 1% to fully disrupt liposomes. Liposome disruption as indicated by content leakage and SRB dequenching was normalized using the formula [Fω−F(0)]/[F(Max)−F(0)] where F(0) is the average fluorescence intensity before acidification and F(Max) is the average fluorescence intensity ater addition of Triton X-100. All measurements were collected on a Varian Cary Eclipse spectrophotometer using an excitation/emission pairing of […] and 2.5 nm slit widths at 24° C. Any data plotted together was collected using the sum batch of liposomes.

[5] = pH 7.4
Text: For low-pH experiments involving circular dichroism (CD), small-angle X-ray scattering (SAXS), and size exclusion chromatography (SEC), Na2PO4-Citrate buffer was used to ensure that a single buffer system could be used that was stable over the entire pH range to be tested. Buffers were made using established ratios of stock solutions of 0.2 M Na2PO4 and 0.1 M Citrate; final pH was adjusted using hydrochloric acid (HCl) or sodium hydroxide (NaOH) if needed.
CD wavelength scans (260 to 195 nm) and temperature melts (25 to 95° C.) were measured using a JASCO™ J-1500 or an AVIV™ model 420 CD spectrometer. Temperature melts monitored absorption signal at 222 nm and were carried out at a heating rate of 4° C./min; protein samples were at 0.25 mg/mL in either phosphate buffered saline (PBS) pH 7.4 or Na2PO4-Citrate at indicated pH values (see Buffers systems for varying pH). Guanidinium chloride (GdmCl) titrations were all performed on an AVIV 420 spectrometer with an automated titration apparatus using either PBS pH 7.4 or Na2PO4-Citrate buffers at indicated pH at room temperature, monitoring helical signal at 222 nm, using a protein concentration of 0.025 mg/mL in a 1 cm cuvette with stir bar. Each titration consisted of at least 30 evenly distributed concentration points with one minute mixing time for each step. Titrant solution consisted of the same concentration of protein in the same buffer system plus GdmCl; GdmCl concentration of starting solutions was determined by reactive index.

[6] = molecular target: the molecule itself; experiment: native mass spectrometry at 5 uM trimer
Method: Samples were buffer exchanged twice into 200 mM ammonium acetate (NH₄Ac; MilliporeSigma) using Micro Bio-Spin P-6 columns (Bio-Rad). […]

B1: pRO-2-noHis subunit (homotrimer lacking histidine networks) (designed binder)
chain: GSEYEIRKALEELKASTAELKRSTASLRASTEELKKNPSEDALVENNRLIVENNAIIVENNRIIAAVLELIVRAIK
notes: forms a homotrimer; Tag-free form
[1]
  colocalization with lysosomal membranes: not observed in lysosomes
[2]
  oligomeric state at pH 7 / neutral pH: assembled to the intended trimeric state
[2]; pH ~7 to ~3
  pH response of oligomeric state (pH-induced disassembly): remained trimeric at low pH; also recorded: no significant pH response
[3]
  interaction with liposomes by cryo-EM: no interactions with liposomes at either pH; also recorded: does not interact with liposomes at either pH
[4]
  liposome disruption activity at pH 5: no detectable liposome activity
[5]
  folding stability by GdmCl denaturation: unaffected by change in pH
[6]
  binding result: binds
